Data published in patent US20020160955A1 (published 2002).
Residue numbers refer to the chain shown, from its start. Names may count otherwise.

Columns and labels:
[1] = molecular target: T1, human IGFBP-1 (human, UniProt P08833 26-259); assay: competitive phage ELISA
T1 construct: secreted recombinant protein purified from conditioned medium
T1 sequence (looked up): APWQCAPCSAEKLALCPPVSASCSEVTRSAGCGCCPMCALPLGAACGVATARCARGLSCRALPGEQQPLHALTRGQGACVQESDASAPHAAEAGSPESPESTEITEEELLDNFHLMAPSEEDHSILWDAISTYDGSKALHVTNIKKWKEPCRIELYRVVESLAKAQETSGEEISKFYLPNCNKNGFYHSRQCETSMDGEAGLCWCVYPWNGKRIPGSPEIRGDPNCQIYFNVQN
Method: (§1) E. coli cells (XL1-Blue, Stratagene) freshly transformed with phagemid vector were grown overnight in 5 mL 2YT medium (Sambrook et al, supra) in the presence of M13-VCS helper phage (Stratagene). Phage particles were harvested and resuspended in PBS buffer as described in Lowman, H. B., “Phage Display of Peptide Libraries on Protein Scaffolds,” in Cabilly, S. (ed.), Combinatorial Peptide Library Protocols (Humana Press Inc.: Totowa, N.J., 1998), pp. 249-264. Then phage concentrations were normalized to yield a maximal ELISA signal of 0.2-0.4 for each mutant (Lowman, in Cabilly, S. (ed.), supra). Threefold serial dilutions of soluble competitor were prepared on non-absorbent microtiter plates (Nunc, F, 96 wells) with binding buffer (0.5% TWEEN™ 20/PBS) containing phage at the previously-determined concentrations. […] After blocking, the plates containing immobilized target were washed with 0.05% TWEEN™/PBS buffer and subsequently incubated with 80 μl/well of the premixed phage-competitor solutions for 1 hour at room temperature. After washing, bound phage was detected with 80 μl/well of a solution containing a primary rabbit anti-phage polyclonal antibody and a secondary goat anti-rabbit monoclonal antibody-horseradish peroxidase conjugate in 0.5% TWEEN 20™/PBS. o-Phenylenediamine (Sigma) and tetramethylbenzidine (Kirkegaard and Perry) were used as chromogenic substrates, resulting in product detection at 492 and 450 nm, respectively. IC₅₀ values were determined by fitting the binding data to a generic saturation curve (Lowman, in Cabilly, S. (ed.), supra). […] Numbers in Table I represent mean +standard deviation of individually assessed IC₅₀ values.

[2] = molecular target: T2, recombinant human IGFBP-3 (human, UniProt P17936 28-291); assay: competitive phage ELISA: soluble IGFBP-3 against IGFBP-3-coated wells
T2 construct: secreted recombinant protein purified from conditioned medium
T2 sequence (P17936 28-291 limits assumed): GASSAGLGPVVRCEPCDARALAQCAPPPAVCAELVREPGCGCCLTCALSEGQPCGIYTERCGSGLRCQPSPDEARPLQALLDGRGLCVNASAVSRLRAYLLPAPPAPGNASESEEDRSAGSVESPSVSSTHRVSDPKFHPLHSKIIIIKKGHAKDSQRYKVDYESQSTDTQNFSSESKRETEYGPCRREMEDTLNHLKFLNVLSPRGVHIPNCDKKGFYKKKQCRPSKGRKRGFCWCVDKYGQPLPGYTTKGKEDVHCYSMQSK
Method: The plates were then blocked with 0.5% TWEEN 20™/PBS (also used as binding buffer) for 2 hours at room temperature (proteinaceous blocking agents like bovine serum albumin were avoided to prevent potential IGF or IGFBP contamination). E. coli cells (XL1-Blue, Stratagene) freshly transformed with phagemid vector were grown overnight in 5 mL 2YT medium (Sambrook et al, supra) in the presence of M13-VCS helper phage (Stratagene). Phage particles were harvested and resuspended in PBS buffer as described in Lowman, H. B., “Phage Display of Peptide Libraries on Protein Scaffolds,” in Cabilly, S. (ed.), Combinatorial Peptide Library Protocols (Humana Press Inc.: Totowa, N.J., 1998), pp. 249-264. Then phage concentrations were normalized to yield a maximal ELISA signal of 0.2-0.4 for each mutant (Lowman, in Cabilly, S. (ed.), supra). Threefold serial dilutions of soluble competitor were prepared on non-absorbent microtiter plates (Nunc, F, 96 wells) with binding buffer (0.5% TWEEN™ 20/PBS) containing phage at the previously-determined concentrations.

[3] = molecular target: T2, recombinant human IGFBP-3; assay: competitive phage ELISA
Method: as §1

B1: IGF-I D12A (G1S-A70V background) displayed on phage (ligand, not shown: large carriers)
chain: SPETLCGAELVAALQFVCGDRGFYFNKPTGYGSSSRRAPQTGIVDECCFRSCDLRRLEMYCAPLKPAKSV
notes: monovalent M13 phage display
binding result [1]: binds

B2: IGF-I F49A (G1S-A70V background) displayed on phage (ligand, not shown: large carriers; small tags and cut ends)
chain: B1 chain with A12D, F49A
notes: monovalent M13 phage display; also called IGF-F49A phage
binding result [2]: binds

B3: IGF-I D45A (G1S-A70V background) displayed on phage (ligand, not shown: large carriers)
chain: B1 chain with A12D, D45A
notes: monovalent M13 phage display
binding result [1]: binds

B4: IGF-I T41A (G1S-A70V background) displayed on phage (ligand, not shown: large carriers)
chain: B1 chain with A12D, T41A
notes: monovalent M13 phage display
binding result [3]: binds

B5: IGF-I S35A (G1S-A70V background) displayed on phage (ligand, not shown: large carriers)
chain: B1 chain with A12D, S35A
notes: monovalent M13 phage display
binding result [3]: binds
